Measurements from PMC10192343, “Structural and functional analyses of the echinomycin resistance conferring protein Ecm16 from Streptomyces lasalocidi” (Scientific Reports, 2023).
Marks after values point to notes of the source that are not given here.

Assays:
[1] = target: Ecm16* (Streptomyces lasalocidi (insertion domain from Streptomyces peucetius DrrC)) (UniProt Q0X0A9); assay: fluorescence polarization; settings: apparent KD, Hill fit, FP: 50 mM HEPES pH 7.5, 50 mM NaCl, 50 nM DNA, 4-512 nM protein, temperature not stated, EMSA: same buffer plus 0.1 mg/ml BSA
[2] = target: T1, UvrA (Thermotoga maritima, UniProt Q9WYV0); assay: ATPase, EnzChek phosphate assay (MESG/PNP, […] nm); assay type: biochemical; settings: 1 µM echinomycin-DNA or DNA, 50 mM HEPES pH 7.5, 50 mM NaCl, 10 mM MgCl2, 22 °C
T1 construct: pET28a(+) construct, E. coli Rosetta (DE3) pLysS, His-Trap purified, no tag cleavage mentioned
T1 sequence (Q9WYV0 1-916): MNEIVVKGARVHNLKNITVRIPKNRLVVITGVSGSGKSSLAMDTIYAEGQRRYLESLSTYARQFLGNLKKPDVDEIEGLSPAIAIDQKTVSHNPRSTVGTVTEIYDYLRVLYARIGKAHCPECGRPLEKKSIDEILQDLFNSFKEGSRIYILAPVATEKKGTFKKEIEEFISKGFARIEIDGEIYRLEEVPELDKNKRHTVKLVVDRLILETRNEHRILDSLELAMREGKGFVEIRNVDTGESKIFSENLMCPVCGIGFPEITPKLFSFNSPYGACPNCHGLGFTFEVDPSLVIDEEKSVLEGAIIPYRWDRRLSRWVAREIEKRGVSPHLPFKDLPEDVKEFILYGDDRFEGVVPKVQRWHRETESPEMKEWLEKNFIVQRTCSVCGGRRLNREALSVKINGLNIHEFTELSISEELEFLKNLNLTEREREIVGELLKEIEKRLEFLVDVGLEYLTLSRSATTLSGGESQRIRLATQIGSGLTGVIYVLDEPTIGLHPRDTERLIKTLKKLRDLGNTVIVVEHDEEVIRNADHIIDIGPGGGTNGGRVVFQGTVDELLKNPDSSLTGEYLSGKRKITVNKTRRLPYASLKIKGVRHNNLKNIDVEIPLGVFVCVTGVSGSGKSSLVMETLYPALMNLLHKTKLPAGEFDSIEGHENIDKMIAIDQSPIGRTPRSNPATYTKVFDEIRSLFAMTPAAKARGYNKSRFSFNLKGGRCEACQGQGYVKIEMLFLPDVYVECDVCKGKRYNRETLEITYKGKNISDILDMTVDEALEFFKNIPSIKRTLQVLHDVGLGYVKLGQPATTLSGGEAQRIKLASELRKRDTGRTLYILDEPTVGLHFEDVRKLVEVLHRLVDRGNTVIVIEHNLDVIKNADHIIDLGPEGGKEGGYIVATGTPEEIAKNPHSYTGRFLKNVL

[3] = target: Ecm16 (Streptomyces lasalocidi, UniProt Q0X0A9); settings: 1 µM echinomycin-DNA or DNA, 50 mM HEPES pH 7.5, 50 mM NaCl, 10 mM MgCl2, 22 °C
[4] = target: the molecule itself; assay: crystal structure; hanging drop vapour diffusion at 18 °C; 8 mg/ml Ecm16, 10 mM MgCl2, 1 mM ADP mixed with 0.1 M MES pH 6.5, 0.2 M sodium thiocyanate, 12% PEG 20K; 2.0 Å; homodimer in the model
[5] = target: T2, Ecm16 (Streptomyces lasalocidi, UniProt Q0X0A9 1-792); assay: fluorescence polarization; echinomycin-bound DNA; apparent KD, Hill fit; FP: 50 mM HEPES pH 7.5, 50 mM NaCl, 50 nM DNA, 4-512 nM protein, temperature not stated; EMSA: same buffer plus 0.1 mg/ml BSA, 50 nM DNA, echinomycin:DNA 1.1:1, 15 min at room temperature, 6% native gel at 4 °C; settings: protein: recombinant; tags: His (pET28a, Ni-NTA); chain copies: 2; label: 5'-FAM on both strands; blunt; self-complementary
T2 sequence: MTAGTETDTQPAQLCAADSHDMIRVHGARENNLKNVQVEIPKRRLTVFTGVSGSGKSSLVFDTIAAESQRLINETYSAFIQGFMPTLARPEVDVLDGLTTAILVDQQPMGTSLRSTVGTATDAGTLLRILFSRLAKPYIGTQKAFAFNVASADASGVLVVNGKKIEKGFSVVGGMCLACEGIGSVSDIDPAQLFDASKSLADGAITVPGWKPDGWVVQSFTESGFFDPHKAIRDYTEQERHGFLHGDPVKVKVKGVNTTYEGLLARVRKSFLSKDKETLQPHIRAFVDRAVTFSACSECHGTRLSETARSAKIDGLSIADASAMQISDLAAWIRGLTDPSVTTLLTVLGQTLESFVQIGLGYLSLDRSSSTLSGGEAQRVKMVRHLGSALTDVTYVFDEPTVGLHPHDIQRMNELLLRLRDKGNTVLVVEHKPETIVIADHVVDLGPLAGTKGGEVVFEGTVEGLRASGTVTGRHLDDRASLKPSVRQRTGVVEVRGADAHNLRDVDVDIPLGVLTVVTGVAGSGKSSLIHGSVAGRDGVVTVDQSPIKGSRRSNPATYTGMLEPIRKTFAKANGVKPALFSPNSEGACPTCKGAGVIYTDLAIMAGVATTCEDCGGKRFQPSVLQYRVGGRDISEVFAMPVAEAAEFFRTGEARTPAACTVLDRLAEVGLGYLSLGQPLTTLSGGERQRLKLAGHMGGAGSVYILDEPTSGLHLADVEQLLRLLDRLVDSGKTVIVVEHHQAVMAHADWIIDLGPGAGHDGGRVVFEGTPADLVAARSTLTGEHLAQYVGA

[6] = target: T2, Ecm16; assay: fluorescence polarization; no echinomycin; apparent KD, Hill fit; FP: 50 mM HEPES pH 7.5, 50 mM NaCl, 50 nM DNA, 4-512 nM protein, temperature not stated; EMSA: same buffer plus 0.1 mg/ml BSA, 50 nM DNA, echinomycin:DNA 1.1:1, 15 min at room temperature, 6% native gel at 4 °C; settings: protein: recombinant; tags: His (pET28a, Ni-NTA); chain copies: 2; label: 5'-FAM on both strands; blunt; self-complementary

## AGTGATCAGTGGTTACGTAACCACTGATCACT (double strand) [FAM 32-bp DNA]
[1]; echinomycin-bound DNA
  Kd: 37.7 nM
[1]; no echinomycin
  Kd: 90.8 nM

## Nc1ncnc2c1ncn2[C@@H]1O[C@H](COP(=O)(O)OP(=O)(O)OP(=O)(O)O)[C@@H](O)[C@H]1O [ATP]
[2]
  ATPase, EnzChek phosphate assay (MESG/PNP, 360 nm): Ecm16* and UvrA showed a similar basal ATPase activity for all four DNA substrates
[3]
  ATPase, EnzChek phosphate assay (MESG/PNP, 360 nm): we measured the ATP hydrolysis activity of Ecm16, Ecm16-ΔID, Ecm16*, and UvrA

B1: Ecm16 from Streptomyces lasalocidi (natural protein)
chain: T2 sequence
notes: Ecm16, UvrA-like self-resistance protein of the echinomycin biosynthetic gene cluster, Streptomyces lasalocidi (formerly S. lasaliensis); codon-optimised gene in pET28a(+) between NdeI and EcoRI; cloning by NdeI into pET28a(+) would put a His tag on the N-terminus (surmised); also called WT Ecm16; echinomycin resistance conferring protein Ecm16; source: E. coli BL21 (DE3), purified (Ni-NTA, …)
[4]
  stoichiometry N: 2

B2: FAM 32-bp DNA (dsDNA)
DNA 1: AGTGATCAGTGGTTACGTAACCACTGATCACT
DNA 2: B2 DNA 1
[5]
  Kd: 11.8 ± 1.7 nM
[6]
  Kd: 60.2 ± 2.1 nM
